The values that follow come from patent US20240002497A1 (Merck Sharp & Dohme, published 2024).

Experiment [1] concerns the target T1, huNav1.7α+β1 (human, UniProt Q15858 1-1988; Q07699 19-218). Description: cell-based or functional assay.
Experiment [2] addresses T2, huNav1.7α (human, UniProt Q15858 1-1988). Description: cell-based or functional assay.
The target of experiment [3] is T3, rhNav1.7α+β1-β2-β3 (rhesus monkey α subunit with human β …). Description: cell-based or functional assay.
In experiment [4] the target is rhNav1.7α (rhesus monkey, UniProt Q15858 1-1988 (human entry)). Description: cell-based or functional assay.
The target of experiment [5] is T3, rhNav1.7α+β1-β2-β3. Description: binding FACS, CHO FlpIn cells.
Experiment [6] has as its target T2, huNav1.7α. Put plainly: binding FACS, HEKa cells.
In experiment [7] the target is T1, huNav1.7α+β1. Description: binding FACS, HEKa/β1 cells.
Experiment [8] deals with T4, huNav1.7α + β1-β2-β3 (human Nav1.7α co-expressed with human Navβ1, Navβ2 and Navβ3 on cells) (human).
T4 construct: also called huNav1.7-beta1-beta2-beta3; CHO FlpIn huNav1.7α + β1-β2-β3
Put plainly: binding FACS, CHO FlpIn cells. In short, it runs like this: (§1)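 Cells are first suspended in FACS buffer at 1×10^5 per well. Next, FLAG3-tagged ISVD is added for 30 minutes at 4° C, and binding is then detected with murine anti-Flag. Finally, samples go into 1 μg/mL propidium iodide before flow cytometry.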

The target in experiment [9] is T5, rhNav1.7α + β1-β2-β3 (rhesus Nav1.7α co-expressed with Navβ1, Navβ2 and Navβ3 on cells) (rhesus monkey (α subunit); β subunits …).
T5 construct: also called rhNav1.7-beta1-beta2-beta3; CHO FlpIn rhNav1.7α + β1-β2-β3
Description: binding FACS, CHO FlpIn cells. Summed up: as §1

The target of experiment [10] is T6, huNav1.7α on HEK cells (without β subunits) (human, UniProt Q15858 1-1988).
T6 construct: also called HEKa huNav1.7α
Description: binding FACS, HEK cells (HEKa).

Experiment [11] concerns the target huNav1.7α + β1 on HEK cells (human, UniProt Q15858 1-1988; Q07699 19-218). Description: binding FACS, HEK cells (HEKa/b1).
The target in experiment [12] is T7, huNav1.7α (HEKa) (human, UniProt Q15858 1-1988).
T7 construct: also called HEKa huNav1.7α
Put plainly: binding FACS, HEKa cells. The procedure:
Binding of the ISVDs to cell-expressed Nav1.7α was detected via murine anti-Flag (Sigma, catalog #F1804). Briefly, cells were resuspended in FACS buffer (PBS, 10% FBS, NaN₃) and transferred to a 96-well V-bottom plate at 1×10^5 cells/well. Purified FLAG3-tagged ISVD was diluted in FACS buffer and added to the cells for 30 minutes at 4° C. […] Prior to the read-out, the samples were resuspended in 1 μg/mL propidium iodide (Sigma, catalog #P4170) to exclude dead cells. Between each step, the cells were centrifuged for 5 minutes at 200 grams and washed with 100 μL/well FACS buffer.

Experiment [13] concerns the target T8, huNav1.7α + β1 (HEKa/β1) (human, UniProt Q15858 1-1988; Q07699 19-218).
T8 construct: also called HEKa/β1 huNav1.7α
Description: binding FACS, HEKa/β1 cells. Summed up:
as §1

One may read the EC50 as the concentration giving half of the maximal effect.

B1: F010300477 (VHH)
VHH: EVQLVESGGGLVQPGGSLRLSCAASGSIFNINSMAWYRRAPGKQRELVASSTNGGSTNYADSVKGRFTISRDNAKRVYLQMNSLTPEDTAVYYCNWLLQPSIYDISRTYWGQGTLVTVSS
notes: vs F0103275B05: A94W
On to B1, for which the “single pulse IC50” value was 96 nM in [1] and 1200 nM in experiment [3]. In addition, the “2-pulse IC50 [M], P1” value was found to be 2e-06 M in experiment [2] and 3e-06 M in [4]. The figures for the “2-pulse IC50 [M], P2” value in [2] and in [4] were 2e-06 M and 1e-06 M, respectively. In experiment [5], a half-maximal effect (EC50) was put at 170 nM.

B2: F010300684 (VHH)
VHH: EVQLVESGGGLVQPGGSLRLSCAASGPVFNWNSMAWYRRAPGKQRELVASSTPGGSTNYADSVKGRFTISRDNAKRVYLQMNSLTPEDTAVYYCRALLQPSIYDISRIYWGQGTLVTVSS
notes: vs F0103275B05: S27P, I28V, I31W, N53P, N93R, T101I
In the case of B2, the results for the “single pulse IC50” value in experiment [1] and in experiment [3] were 200 nM and 210 nM, respectively. Besides, the “2-pulse IC50 [M], P1” value in [2] stood at 2e-06 M; in experiment [4], 7e-06 M. Further, the “2-pulse IC50 [M], P2” value in experiment [2] came out at 2e-06 M; in experiment [4], 1e-06 M. The same molecule returned an EC50 in [5] of 50 nM.

B3: F010300880 (VHH)
VHH: EVQLVESGGGLVQPGGSLRLSCAASGPVFNINRMAWYRRAPGKQRELVASSTPGGDTNYADSVKGRFTISRDNAKRVYLQMNSLTPEDTAVYYCRWLLQPSIYDISRTYWGQGTLVTVSS
notes: vs F0103275B05: S27P, I28V, S33R, N53P, S56D, N93R, A94W
Consider B3, for which the “single pulse IC50” value in [1] is 27 nM; in [3], 120 nM. Further, the EC50 came to 15 nM in [6], 44 nM in experiment [7] and 26 nM in experiment [5].

B4: F010301652 (VHH)
VHH: EVQLVESGGGVVQPGGSLRLSCAASGSIFNINRMAWYRRAPGKQRELVAYSTNGGDTNYADSVKGRFTISRDNAKNVYLQMNSLRPEDTALYYCRALLQPSIYDISRTYWGQGTLVTVSS
notes: also called F0103275B05(L11V, S33R, S50Y, S56D, R76N, T83R, V89L, N93R)
For the molecule B4, the EC50 in [8] amounted to 61 nM; in experiment [9], 24 nM; in experiment [10], 24 nM; in experiment [11] it was 38 nM.

B5: F010300631 (VHH)
VHH: EVQLVESGGGLVQPGGSLRLSCAASGPVFNINSMAWYRRAPGKQRELVAYSTPGGSTNYADSVKGRFTISRDNAKRVYLQMNSLTPEDTAVYYCRALLQPSIYDISRTYWGQGTLVTVSS
notes: vs F0103275B05: S27P, I28V, S50Y, N53P, N93R
Take B5: the “single pulse IC50” value was 73 nM in [1] and 170 nM in experiment [3]. Further, the “2-pulse IC50 [M], P1” value in [2] was found to be 1e-06 M; in experiment [4], 2e-06 M. For the same molecule, the “2-pulse IC50 [M], P2” value in [2] and in experiment [4] was 8e-07 M in each case. The EC50 in experiment [5] stood at 45 nM.

B6: F010301655 (VHH)
VHH: EVQLVESGGGVVQPGGSLRLSCAASGSIFNINRMAWYRQAPGKQRELVAYSTNGGDTNYADSVKGRFTISRDNAKNVYLQMNSLRPEDTALYYCRALLQPSIYDISRTYWGQGTLVTVSS
notes: also called F0103275B05(L11V, S33R, R39Q, S50Y, S56D, R76N, T83R, V89L, N93R)
B6: the EC50 in [8] was 46 nM; in experiment [9], 26 nM; in [10], 19 nM; in experiment [11], 28 nM.

B7: F010301653 (VHH)
VHH: EVQLVESGGGVVQPGGSLRLSCAASGSIFNINRMAWYRRAPGKQRELVAYSTNGGDTNYADSVKGRFTISRDNAKRVYLQMNSLRPEDTALYYCRALLQPSIYDISRTYWGQGTLVTVSS
notes: also called F0103275B05(L11V, S33R, S50Y, S56D, T83R, V89L, N93R)
Consider B7, for which the EC50 in experiment [8] came to 36 nM; in experiment [9], 16 nM; in experiment [10] it was 15 nM; in [11], 29 nM.

B8: F010301654 (VHH)
VHH: EVQLVESGGGVVQPGGSLRLSCAASGSIFNINRMAWYRQAPGKQRELVAYSTNGGDTNYADSVKGRFTISRDNAKRVYLQMNSLRPEDTALYYCRALLQPSIYDISRTYWGQGTLVTVSS
notes: also called F0103275B05(L11V, S33R, R39Q, S50Y, S56D, T83R, V89L, N93R)
Take B8: the concentration for a half-maximal effect (EC50) in experiment [8] stood at 32 nM; in experiment [9], 18 nM; in experiment [10] it was 18 nM; in experiment [11] it was 25 nM.

B9: F010301657 (VHH)
VHH: EVQLVESGGGLVQPGGSLRLSCAASVRPFSTSAMGWFRQAPEKEREAVAGILWNGIVTYYADSVKGRFTISRDNAKNEVYLQMNKLKPEDTAVYYCALDRAYQGRSFSAKEYEYWGQGTLVTVSS
As for B9, the EC50 came out at 20 nM in experiment [12] and 16 nM in [13].

B10: F010301665 (VHH)
VHH: EVQLVESGGGLVQPGGSLRLSCAASVRPFSTSAMGWFRQAPEKEREAVAAILWNGIVTYYADSVKGRFTISRDNAKNEVYLQMNKLKPEDTAVYYCALDRAYGGRSFSAKEYEYWGQGTLVTVAA
For the molecule B10, the figures for the EC50 in experiment [12] and in experiment [13] were 8.8 nM and 11 nM, respectively.

B11: F010301662 (VHH)
VHH: EVQLVESGGGLVQPGGSLRLSCAASVRPFSTSAMGWFRQAPEKEREAVAGILWNGIVTYYADSVKGRFTISRDNAKNEVYLQMNKLKPEDTAVYYCALDRAYQGRSFSAYEYEYWGQGTLVTVSS
With B11, the EC50 in experiment [12] is 19 nM; in experiment [13], 17 nM.

B12: F010301659 (VHH)
VHH: EVQLVESGGGLVQPGGSLRLSCAASVRPFSTSAMGWFRQAPEKEREAVAAILWNGIVTYYADSVKGRFTISRDNAKNEVYLQMNKLKPEDTAVYYCALDRAYGGRSFSAYEYEYWGQGTLVTVSS
In the case of B12, the EC50 in [12] came out at 11 nM; in [13], 12 nM.

B13: F010301658 (VHH)
VHH: EVQLVESGGGLVQPGGSLRLSCAASVRPFSTSAMGWFRQAPEKEREAVAAILWNGIVTYYADSVKGRFTISRDNAKNEVYLQMNKLKPEDTAVYYCALDRAYQGRSFSAKEYEYWGQGTLVTVSS
As to B13, the figures for the EC50 in experiment [12] and in experiment [13] were 23 nM and 20 nM, respectively.

B14: F010301666 (VHH)
VHH: EVQLVESGGGLVQPGGSLRLSCAASVRPFSTSAMGWFRQAPEKEREAVAAILWNGIVTYYADSVKGRFTISRDNAKNEVYLQMNKLKPEDTAVYYCALDRDYQGRSFSAKEYEYWGQGTLVTVSS
As for B14, the figures for the EC50 in [12] and in [13] were 10 nM and 14 nM, respectively.

B15: F010301664 (VHH)
VHH: EVQLVESGGGLVQPGGSLRLSCAASVRPFSTSAMGWFRQAPEKEREAVAGILWNGIVTYYADSVKGRFTISRDNAKNEVYLQMNKLKPEDTAVYYCALDRDYQGRSFSAKEYEYWGQGTLVTVSS
As to B15, the figures for the EC50 in experiment [12] and in experiment [13] were 13 nM and 18 nM, respectively.

B16: F010301661 (VHH)
VHH: EVQLVESGGGLVQPGGSLRLSCAASVRPFSTSAMGWFRQAPEKEREAVAAILWNGIVTYYADSVKGRFTISRDNAKNEVYLQMNKLKPEDTAVYYCALDRDYGGRSFSAKEYEYWGQGTLVTVSS
Turning to B16, the EC50 was found to be 16 nM in experiment [12] and 18 nM in [13].

B17: F010301663 (VHH)
VHH: EVQLVESGGGLVQPGGSLRLSCAASVRPFSTSAMGWFRQAPEKEREAVAGILWNGIVTYYADSVKGRFTISRDNAKNEVYLQMNKLKPEDTAVYYCALDRAYGGRSFSAKEYEYWGQGTLVTVSS
On to B17, for which the concentration for a half-maximal effect (EC50) in experiment [12] amounted to 13 nM; in experiment [13] it was 14 nM.
